Experimental data taken from patent US20180201654A1, “PEPTIDE INHIBITORS OF HAUSP DEUBIQUITINASE” (priority 2012, published 2018).

Biological target: HAUSP TRAF domain (HAUSP^62-205) (human), Q93009
Assay: ITC, titration against the HAUSP TRAF domain, 20 C

Chain of HAUSP TRAF domain (HAUSP^62-205) (human), Q93009 (Q93009 62-205): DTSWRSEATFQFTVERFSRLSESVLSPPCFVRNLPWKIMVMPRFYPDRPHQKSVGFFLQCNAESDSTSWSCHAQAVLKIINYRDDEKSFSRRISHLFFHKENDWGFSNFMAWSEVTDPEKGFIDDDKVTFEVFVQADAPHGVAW

Binder | Ka [M⁻¹] | TΔS [kcal/mol] | n | ΔG [kcal/mol] | ΔH [kcal/mol] | Kd [nM]
EGASTSGM (modifications not checked) [vIRF4^209-216 peptide] | 100000 | -10.3 | 0.81 | -6.74 | -17.1 | 
EQGPADDPGEGPSTG (modifications not checked) [EBNA1^435-449 peptide] | 2.1e+06 | -8.69 | 0.81 | -8.48 | -17.2 | 480
